These results are taken from PMC4382515.

Substrate in the series: N[C@@H](CCC(=O)O)C(=O)O
Kind of series: purified protein. The note with it: pH 4.6; 25.0 °C.

B1: EcGadB (Escherichia coli K-12) (protein)
chain: MDKKQVTDLRSELLDSRFGAKSISTIAESKRFPLHEMRDDVAFQIINDELYLDGNARQNLATFCQTWDDENVHKLMDLSINKNWIDKEEYPQSAAIDLRCVNMVADLWHAPAPKNGQAVGTNTIGSSEACMLGGMAMKWRWRKRMEAAGKPTDKPNLVCGPVQICWHKFARYWDVELREIPMRPGQLFMDPKRMIEACDENTIGVVPTFGVTYTGNYEFPQPLHDALDKFQADTGIDIDMHIDAASGGFLAPFVAPDIVWDFRLPRVKSISASGHKFGLAPLGCGWVIWRDEEALPQELVFNVDYLGGQIGTFAINFSRPAGQVIAQYYEFLRLGREGYTKVQNASYQVAAYLADEIAKLGPYEFICTGRPDEGIPAVCFKLKDGEDPGYTLYDLSERLRLRGWQVPAFTLGGEATDIVVMRIMCRRGFEMDFAELLLEDYKASLKYLSDHPKLQGIAQQNSFKHT
As to B1, the Km (commonly the concentration of substrate that gives half-maximal velocity) was 1100 ± 180 µM and the kcat/Km (commonly the turnover number divided by the Michaelis constant) is 13900 ± 2830 M⁻¹ s⁻¹.
